# In US20150152192A1 (SAMSUNG ELECTRONICS, published 2015):
# Where a chain is given by its changes, count along the chain named.
# T1: Ang2 with P452 mutated with alanine, tagged with FLAG (human, UniProt O15123 19-496, limits assumed)
# T1 sequence: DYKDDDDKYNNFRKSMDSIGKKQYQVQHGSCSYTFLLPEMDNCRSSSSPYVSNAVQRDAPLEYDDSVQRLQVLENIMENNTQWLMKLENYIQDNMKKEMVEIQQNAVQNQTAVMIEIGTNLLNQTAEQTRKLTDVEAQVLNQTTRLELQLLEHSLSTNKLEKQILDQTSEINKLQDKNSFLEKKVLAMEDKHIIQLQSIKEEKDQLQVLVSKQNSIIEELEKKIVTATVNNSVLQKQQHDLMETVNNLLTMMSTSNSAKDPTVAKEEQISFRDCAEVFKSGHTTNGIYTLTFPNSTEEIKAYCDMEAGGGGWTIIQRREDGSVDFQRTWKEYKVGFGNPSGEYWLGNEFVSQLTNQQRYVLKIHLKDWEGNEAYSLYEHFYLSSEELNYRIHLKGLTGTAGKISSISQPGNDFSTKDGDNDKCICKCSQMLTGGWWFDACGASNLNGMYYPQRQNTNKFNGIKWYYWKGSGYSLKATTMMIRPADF
# T2: Ang2 with N467 mutated with alanine, tagged with FLAG (human, UniProt O15123 19-496, limits assumed)
# T2 sequence: T1 sequence with A442P, N457A
# T3: FLAG-Tagged hAng2 (human, UniProt O15123 19-496, limits assumed)
# T3 construct: also called FLAG-Ang2; non-mutated Ang2
# T3 sequence: T1 sequence with A442P
# B1: SAIT-ANG-2-AB-2-E6 (scFv form) (scFv, V domains shown)
# VH: EVQLLESGGGLVQTGGSLRLSCAASGFTFSDYAMSWVRQAPGKGLEWVSAIYPDSGNKYYADSVKGRFTISRDNSKNTLYLQMNSLRAEDTAVYYCARHSSDPKVKSGYYDDGMDVWGQGTLVAVSS
# VL: QSVLTQPPSASGTPGQRVTISCSGSSSNIGNNAVNWYQQLPGTAPKLLIYADSNRPSGVPDRFSGSKSGTSASLAISGLRSEDEADYYCGSWDYSLSGYVFGGGTKLTVLG
# notes: scFv from a phage display library, partly purified from E. coli periplasm on Ni-NTA and detected with anti-HA
# B2: SAIT-ANG-2-AB-4-C11 (scFv form) (scFv, V domains shown)
# VH: EVQLLESGGGLVQPGGSLRLSCAASGFTFSDYAMSWVRQAPGKGLEWVSSIYPDDGNTYYADSVKGRFTISRDNSKNTLYLQMNSLRAEDTAVYYCARHTSHHTSIDGYYYYGMDGWGQGTLVTVSS
# VL: B1 VL with S23T, A33D, N35S, A51S, N54K
# notes: scFv from a phage display library
# B3: SAIT-ANG-2-AB-3-D3 (scFv form) (scFv, V domains shown)
# VH: EVQLLESGGGLVQPGGSLRLSCAASGFTFSDYDMSWVRQAPGKGLEWVSGISSDDGNTYYADSVKGRFTISRDNSKNTLYLQMNSLRAEDTAVYYCARPTIDKYTLRGYYSYGMDVWGQGTLVTVSS
# VL: B1 VL with S23T, N31S, A33Y, N35S, A51S, S53N, N54K, S91T, Y94D, S97N
# notes: as for B2
# B4: SAIT-ANG-2-AB-4-F5 (scFv form) (scFv, V domains shown)
# VH: EVQLLESGGGLVQPGGSLRLSCAASGFTFSDYDMSWVRQAPGKGLEWVSSISHGDSNKYYADSVKGRFTISRDNSKNTLYLQMNSLRAEDTAVYYCAKSSGIQESPPTYYYYGMDVWGQGTLVTVSS
# VL: B1 VL with N31S
# notes: as for B2
# B5: SAIT-ANG-2-AB-7-C9 (scFv form) (scFv, V domains shown)
# VH: EVQLLESGGGLVQPGGSLRLSCAASGFTFSNYAMSWVRQAPGKGLEWVSAISSGGGNIYYADSVKGRFTISRDNSKNTLYLQMNSLRAEDTAVYYCAKSGIQPSPPSMSSAYAMDVWGQGTLVTVSS
# VL: B1 VL with A33D, N35Y, D52N, N54H, S91T
# notes: as for B2
# B6: SAIT-ANG-2-AB-4-F11 (scFv form) (scFv, V domains shown)
# VH: EVQLLESGGGLVQTGGSLRLSCAASGFTFSDYAMSWVRQAPGKGLEWVSSIYPDDGNTYYADSVKGRFTISRDNSKNTLYLQMNSLRAEDTAVYYCAKHPVRLNLHPMYYYYGMDVWGQGTLVTVSS
# VL: B1 VL with S23T, N35S, A51S, N54Q, G90A, S91T, G98A
# notes: as for B2
# B7: SAIT-ANG-2-AB-8-A5 (scFv form) (scFv, V domains shown)
# VH: EVQLLESGGGLVQPGGSLRLSCAASGFTFSDYYMSWVRQAPGKGLEWVSGIYPSGGSTYYADSVKGRFTISRDNSKNTLYLQMNSLRAEDTAVYYCARDPSTLTYAGFDYWGQGTLVTVSS
# VL: B1 VL with A33Y, N35T, N54H, G90A, S91T
# notes: as for B2
# Target: Ang2 with A449 mutated with alanine, tagged with FLAG (human) (UniProt O15123)
# Sequence (O15123 other isoform, or with tags, fused parts or gaps, change not shown): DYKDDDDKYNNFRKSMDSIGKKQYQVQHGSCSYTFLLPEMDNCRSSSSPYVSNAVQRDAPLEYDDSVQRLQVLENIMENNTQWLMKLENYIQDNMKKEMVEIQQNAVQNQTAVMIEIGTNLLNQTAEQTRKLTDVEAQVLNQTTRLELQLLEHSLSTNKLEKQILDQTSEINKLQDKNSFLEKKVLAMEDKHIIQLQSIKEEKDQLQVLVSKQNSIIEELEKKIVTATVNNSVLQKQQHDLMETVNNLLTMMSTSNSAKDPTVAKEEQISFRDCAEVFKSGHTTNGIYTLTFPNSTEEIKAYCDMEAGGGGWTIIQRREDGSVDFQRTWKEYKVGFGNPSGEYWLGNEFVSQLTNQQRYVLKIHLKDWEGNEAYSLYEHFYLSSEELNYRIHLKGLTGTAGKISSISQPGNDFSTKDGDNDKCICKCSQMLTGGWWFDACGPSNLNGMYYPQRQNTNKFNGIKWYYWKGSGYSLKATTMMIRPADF
# Experiment: ELISA, scFv coated, 250 ng FLAG-tagged Ang2 mutant, anti-FLAG-HRP
row,Binder,Relative binding (%) with Mutant Ang2 compared to the binding with native Ang2 [%]
1,B1,3.3
2,B2,4.8
3,B3,101
4,B4,14
5,B5,14.5
6,B6,16.7

# Target: T1, Ang2 with P452 mutated with alanine, …
# Experiment: as above
# Method: (§1) A 96-well MaxiSorp™ flat-bottom plate (Nunc) was coated with 50 μl of the anti-Ang2 scFv selected above. After that, the plate was washed five times with 0.05% (v/v) Tween-20-containing PBS and then blocked with 1% (v/v) BSA-containing PBS at a room temperature for 2 hours. […] Thereafter, the plate was washed five times with 0.05% Tween-20-containing PBS and then, an HRP-conjugated anti-FLAG antibody (SIGMA) diluted in 1% (v/v) BSA-containing PBS at 1:5,000 ratio (v/v) was added in the amount of 50 μl to each well to react at a room temperature for 1 hour, followed by washing five times with 0.1% (v/v) Tween-20-containing PBS.
# (§2) Finally, 100 μl of TMB substrate (cell signal) was added to each well of the plate to induce color development and then, the reaction was ceased by the addition of 50 μl of 5N H₂SO₄ solution and OD450 values were measured on a plate reader (Molecular Devices).
row,Binder,Relative binding (%) with Mutant Ang2 compared to the binding with native Ang2 [%]
1,B1,24
2,B2,70
3,B3,97.3
4,B7,86.5
5,B4,15
6,B5,85
7,B6,91.6

# Target: T2, Ang2 with N467 mutated with alanine, …
# Experiment: as above
# Method: as §1, §2
row,Binder,Relative binding (%) with Mutant Ang2 compared to the binding with native Ang2 [%]
1,B1,72.1
2,B2,81.7
3,B3,90.9
4,B7,90.7
5,B4,11.3
6,B5,86.6
7,B6,92

# Target: T3, FLAG-Tagged hAng2
# Experiment: competitive ELISA: hTie2-Fc coated, 400 ng/ml FLAG-hAng2 plus scFv, anti-FLAG-HRP
# Method: To verify molecular interaction of the bound assemblies, a competitive ELISA was performed. A 96-well MaxiSorp™ flat-bottom plate (Nunc) was coated with […] of hTie2-Fc (R&D Systems), which is a protein with the Fc of human IgG1 bound thereto. After that, the plate was washed five times with 0.05% (v/v) Tween-20-containing PBS (Phosphate Buffer Saline) and then blocked with 1% (v/v) BSA (Bovine serum albumin; Sigma)-containing PBS at a room temperature for 2 hours.
# Thereafter, the plate was washed five times with 0.05% Tween-20-containing PBS and then, an HRP-conjugated anti-FLAG antibody (SIGMA) diluted in 1% (v/v) BSA-containing PBS at 1:5,000 ratio (v/v) was added in the amount of 100 μl (microliter) to each well to react at a room temperature for 1 hour, followed by washing five times with 0.1% (v/v) Tween-20-containing PBS. Finally, 100 μl (microliter) of TMB substrate (cell signal) was added to each well of the plate to induce color development at a room temperature for 3 min. Then, the reaction was ceased by the addition of 50 μl of 5N H₂SO₄ solution and OD450 values were measured on a plate reader (Molecular Devices).
row,Binder,IC50 [nM]
1,B1,18.9
2,B2,6.5
3,B3,9.9
4,B7,36.3
5,B4,10
6,B5,39.7
7,B6,6.6
